Molecular target: Biotinylated RpoS (S. Typhimurium ATCC 14028S, UniProt D0ZVL4 1-330, biotin (EZ-Link-Biotin; sites not stated))
Experiment: BLI

Sequence of Biotinylated RpoS (D0ZVL4 whole entry): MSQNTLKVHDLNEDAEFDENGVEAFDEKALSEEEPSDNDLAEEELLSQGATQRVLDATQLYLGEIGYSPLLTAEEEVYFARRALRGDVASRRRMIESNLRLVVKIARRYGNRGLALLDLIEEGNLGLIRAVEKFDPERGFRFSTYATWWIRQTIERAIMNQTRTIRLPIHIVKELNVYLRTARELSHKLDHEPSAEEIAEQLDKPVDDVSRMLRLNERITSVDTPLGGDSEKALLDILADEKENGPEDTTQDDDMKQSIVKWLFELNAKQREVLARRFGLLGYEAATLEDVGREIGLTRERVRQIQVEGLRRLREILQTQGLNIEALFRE

Kd: 43.6 nM
B1: MicN (purified, His-tag cleaved) (natural protein, S. Typhimurium ATCC 14028S)
chain: MKEGFYWIQHNGRVQVAYYTHGVTEDLETGQTIIGVWHLTQGDDICHNGEAEILAGPLEPPI
